From patent US20120114557A1

Assays:
[1] = target: T1, Compound ID No 1014; experiment: competition in the dried collagen assay: 1.6 uM soluble competitor protein, 5 uM Comp ID No 1014, 5 uM insoluble type I human collagen
T1 chain: KKWHCYTYFPHHYCVYG

[2] = target: T1, Compound ID No 1014; experiment: competition in the dried collagen assay: 1.6 uM soluble competitor protein, 5 uM Comp ID No 1014, 5 uM insoluble type I rat collagen

% of Comp ID No 1014 bound to insoluble human collagen in presence of the competitor [1]: 59.9%
% of Comp ID No 1014 bound to insoluble rat collagen in presence of the competitor [2]: 28.1%
B1: Type IV human collagen (soluble competitor protein), P02462 28-1669; P08572 26-1712 (protein)
chain 1: not shown
chain 2: FLAQSVLAGVKKFDVPCGGRDCSGGCQCYPEKGGRGQPGPVGPQGYNGPPGLQGFPGLQGRKGDKGERGAPGVTGPKGDVGARGVSGFPGADGIPGHPGQGGPRGRPGYDGCNGTQGDSGPQGPPGSEGFTGPPGPQGPKGQKGEPYALPKEERDRYRGEPGEPGLVGFQGPPGRPGHVGQMGPVGAPGRPGPPGPPGPKGQQGNRGLGFYGVKGEKGDVGQPGPNGIPSDTLHPIIAPTGVTFHPDQYKGEKGSEGEPGIRGISLKGEEGIMGFPGLRGYPGLSGEKGSPGQKGSRGLDGYQGPDGPRGPKGEAGDPGPPGLPAYSPHPSLAKGARGDPGFPGAQGEPGSQGEPGDPGLPGPPGLSIGDGDQRRGLPGEMGPKGFIGDPGIPALYGGPPGPDGKRGPPGPPGLPGPPGPDGFLFGLKGAKGRAGFPGLPGSPGARGPKGWKGDAGECRCTEGDEAIKGLPGLPGPKGFAGINGEPGRKGDRGDPGQHGLPGFPGLKGVPGNIGAPGPKGAKGDSRTITTKGERGQPGVPGVPGMKGDDGSPGRDGLDGFPGLPGPPGDGIKGPPGDPGYPGIPGTKGTPGEMGPPGLGLPGLKGQRGFPGDAGLPGPPGFLGPPGPAGTPGQIDCDTDVKRAVGGDRQEAIQPGCIGGPKGLPGLPGPPGPTGAKGLRGIPGFAGADGGPGPRGLPGDAGREGFPGPPGFIGPRGSKGAVGLPGPDGSPGPIGLPGPDGPPGERGLPGEVLGAQPGPRGDAGVPGQPGLKGLPGDRGPPGFRGSQGMPGMPGLKGQPGLPGPSGQPGLYGPPGLHGFPGAPGQEGPLGLPGIPGREGLPGDRGDPGDTGAPGPVGMKGLSGDRGDAGFTGEQGHPGSPGFKGIDGMPGTPGLKGDRGSPGMDGFQGMPGLKGRPGFPGSKGEAGFFGIPGLKGLAGEPGFKGSRGDPGPPGPPPVILPGMKDIKGEKGDEGPMGLKGYLGAKGIQGMPGIPGLSGIPGLPGRPGHIKGVKGDIGVPGIPGLPGFPGVAGPPGITGFPGFIGSRGDKGAPGRAGLYGEIGATGDFGDIGDTINLPGRPGLKGERGTTGIPGLKGFFGEKGTEGDIGFPGITGVTGVQGPPGLKGQTGFPGLTGPPGSQGELGRIGLPGGKGDDGWPGAPGLPGFPGLRGIRGLHGLPGTKGFPGSPGSDIHGDPGFPGPPGERGDPGEANTLPGPVGVPGQKGDQGAPGERGPPGSPGLQGFPGITPPSNISGAPGDKGAPGIFGLKGYRGPPGPPGSAALPGSKGDTGNPGAPGTPGTKGWAGDSGPQGRPGVFGLPGEKGPRGEQGFMGNTGPTGAVGDRGPKGPKGDPGFPGAPGTVGAPGIAGIPQKIAVQPGTVGPQGRRGPPGAPGEMGPQGPPGEPGFRGAPGKAGPQGRGGVSAVPGFRGDEGPIGHQGPIGQEGAPGRPGSPGLPGMPGRSVSIGYLLVKHSQTDQEPMCPVGMNKLWSGYSLLYFEGQEKAHNQDLGLAGSCLARFSTMPFLYCNPGDVCYYASRNDKSYWLSTTAPLPMMPVAEDEIKPYISRCSVCEAPAIAIAVHSQDVSIPHCPAGWRSLWIGYSFLMHTAAGDEGGGQSLVSPGSCLEDFRATPFIECNGGRGTCHYYANKYSFWLTTIPEQSFQGSPSADTLKAGLIRTHISRCQVCMKNL
modifications: here or on the partner: as printed: Gd^T-K(Gd^D)-K(Gd^D)-W-H-C-Y-T-Y-F-P-H-H-Y-C-V-Y-G; Gd^T = GdDTPA-thiourea, Gd^D = GdDOTAGA; cyclic through a disulfide between the two cysteines
